Source: patent US20180179267A1 (published 2018)
Numbering of substitutions follows the chain as printed.

T1: Hla
T1 chain: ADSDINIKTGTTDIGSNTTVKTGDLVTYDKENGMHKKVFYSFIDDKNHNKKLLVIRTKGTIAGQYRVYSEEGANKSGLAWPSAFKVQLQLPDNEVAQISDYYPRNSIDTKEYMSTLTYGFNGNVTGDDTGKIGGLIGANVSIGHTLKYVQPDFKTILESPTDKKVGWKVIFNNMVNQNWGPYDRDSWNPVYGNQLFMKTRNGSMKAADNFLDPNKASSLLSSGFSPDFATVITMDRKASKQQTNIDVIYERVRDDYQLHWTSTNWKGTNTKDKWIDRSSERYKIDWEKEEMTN

T2: LukD
T2 chain: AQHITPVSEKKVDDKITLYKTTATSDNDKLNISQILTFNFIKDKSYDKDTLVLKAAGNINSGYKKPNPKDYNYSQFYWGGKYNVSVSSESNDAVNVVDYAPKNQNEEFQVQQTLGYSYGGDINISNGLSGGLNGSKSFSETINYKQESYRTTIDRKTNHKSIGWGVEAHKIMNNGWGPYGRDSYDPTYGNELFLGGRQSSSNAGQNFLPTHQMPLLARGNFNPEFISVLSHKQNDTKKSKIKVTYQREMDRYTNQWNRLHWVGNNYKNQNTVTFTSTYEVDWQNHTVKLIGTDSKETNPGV

T3: LukF
T3 chain: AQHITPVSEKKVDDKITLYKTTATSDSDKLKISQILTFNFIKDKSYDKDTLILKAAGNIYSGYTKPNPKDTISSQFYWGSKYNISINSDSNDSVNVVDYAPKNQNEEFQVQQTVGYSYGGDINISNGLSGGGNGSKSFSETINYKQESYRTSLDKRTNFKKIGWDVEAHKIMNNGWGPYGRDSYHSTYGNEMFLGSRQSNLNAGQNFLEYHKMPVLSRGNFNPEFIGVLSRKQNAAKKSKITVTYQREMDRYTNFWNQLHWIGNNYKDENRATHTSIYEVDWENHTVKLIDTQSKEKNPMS

T4: HlgB
T4 chain: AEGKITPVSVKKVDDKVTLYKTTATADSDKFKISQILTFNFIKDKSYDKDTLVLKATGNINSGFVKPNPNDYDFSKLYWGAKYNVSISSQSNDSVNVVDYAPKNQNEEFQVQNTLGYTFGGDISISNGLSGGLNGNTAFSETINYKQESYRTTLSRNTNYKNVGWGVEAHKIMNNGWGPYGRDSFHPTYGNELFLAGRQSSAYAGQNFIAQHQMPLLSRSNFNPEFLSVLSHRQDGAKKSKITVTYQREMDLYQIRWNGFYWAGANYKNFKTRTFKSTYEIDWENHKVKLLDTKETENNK

B1: AB-28-6 (antibody, V domains shown)
VH: QVQLQESGPGLVRPSETLSLTCAVSGYSISSGMGWGWIRQPPGKGLEWIGSIDQRGSTYYNPSLKSRVTISVDTSKNQFSLKLSSVTAADTAVYYCARDAGHAVDMDVWGKGTTVTVSS
VL: DIQMTQSPSSVSASVGDRVTITCRASQGISRWLAWYQQKPGKAPKLLIYAASSLQSGVPSRFSGSGSGTDFTLTISSLQPEDFATYYCQQGYVFPLTFGGGTKVEIK
B2: AB-28-13 (antibody, V domains shown)
VH: B1 VH with R13K, G36D, K65E, S66G, V68A, A103G
VL: B1 VL
B3: AB-28-3 (antibody, V domains shown)
VH: B1 VH with R13K, I52V, A103G, V104A
VL: B1 VL
B4: AB-28 (antibody, V domains shown)
VH: B1 VH with R13K, A103G
VL: B1 VL
B5: AB-28-9 (antibody, V domains shown)
VH: B1 VH with Q1E
VL: B1 VL
B6: AB-28-11 (antibody, V domains shown)
VH: B1 VH with R13K, G36D, K65E, S66G, A103G
VL: B1 VL
B7: AB-28-10 (antibody, V domains shown)
VH: B1 VH with R13K
VL: B1 VL
B8: AB-28-4 (antibody, V domains shown)
VH: B1 VH with R13K, S28P, S51R, V68A, A103G
VL: B1 VL
B9: AB-28-8 (antibody, V domains shown)
VH: B1 VH with R13K, G36D, S63P, K65E, A103G
VL: B1 VL
B10: AB-28-7 (antibody, V domains shown)
VH: B1 VH with R13K, G36D, L46R, K65E, S66G, V68A, A103G
VL: B1 VL
B11: AB-28-12 (antibody, V domains shown)
VH: B1 VH with R13K, G36D, L46R, K65E, S66G, A103G
VL: B1 VL
B12: AB-28-5 (antibody, V domains shown)
VH: B1 VH with R13K, S51R, I52V, A103G
VL: B1 VL

Biological target: T1, Hla
Assay: not given

| Binder | Kd |
| --- | --- |
| B1 | < 0.002 nM |
| B2 | < 0.002 nM |
| B3 | 0.037 nM |
| B4 | < 0.002 nM |
| B5 | < 0.002 nM |
| B6 | < 0.002 nM |
| B7 | < 0.002 nM |
| B8 | 0.023 nM |
| B9 | < 0.002 nM |
| B10 | < 0.002 nM |
| B11 | < 0.002 nM |
| B12 | 0.03 nM |

Biological target: T2, LukD
Assay: MSD solution equilibrium; Fab

| Binder | Kd |
| --- | --- |
| B1 | 0.4 nM |
| B2 | 0.79 nM |
| B3 | 1.7 nM |
| B4 | 2.2 nM |
| B5 | 2.2 nM |
| B6 | 1.2 nM |
| B7 | 0.45 nM |
| B8 | 0.086 nM |
| B9 | 0.78 nM |
| B10 | 0.29 nM |
| B11 | 0.46 nM |
| B12 | 0.16 nM |

Biological target: T3, LukF
Assay: MSD solution equilibrium; Fab

| Binder | Kd |
| --- | --- |
| B1 | 0.016 nM |
| B2 | 0.089 nM |
| B3 | < 0.003 nM |
| B4 | 0.13 nM |
| B5 | 0.13 nM |
| B6 | 0.071 nM |
| B7 | 0.017 nM |
| B9 | 0.046 nM |
| B10 | 0.052 nM |
| B11 | 0.063 nM |

Biological target: T4, HlgB
Assay: MSD solution equilibrium; Fab

| Binder | Kd |
| --- | --- |
| B1 | 0.0025 nM |
| B2 | 0.003 nM |
| B3 | 0.018 nM |
| B4 | 0.005 nM |
| B5 | 0.005 nM |
| B6 | 0.003 nM |
| B7 | 0.006 nM |
| B8 | 0.14 nM |
| B9 | 0.002 nM |
| B10 | < 0.002 nM |
| B11 | < 0.002 nM |
| B12 | 0.16 nM |
